Consider 1 molecule from patent publication CN113072642A (FUZHOU MAIXIN BIOTECHNOLOGY DEV CO LTD, dated 2021).

This test concerns the target T1, OCT3/4蛋白 (in tissue sections, immunohistochemistry) (human, UniProt Q01860 1-360, limits assumed).
T1 construct: Endogenous antigen in tumour and normal tissue chips; also called OCT3/4抗原
Nature of the test: immunohistochemistry on tumour tissue chip.

T1 sequence (Q01860 whole entry): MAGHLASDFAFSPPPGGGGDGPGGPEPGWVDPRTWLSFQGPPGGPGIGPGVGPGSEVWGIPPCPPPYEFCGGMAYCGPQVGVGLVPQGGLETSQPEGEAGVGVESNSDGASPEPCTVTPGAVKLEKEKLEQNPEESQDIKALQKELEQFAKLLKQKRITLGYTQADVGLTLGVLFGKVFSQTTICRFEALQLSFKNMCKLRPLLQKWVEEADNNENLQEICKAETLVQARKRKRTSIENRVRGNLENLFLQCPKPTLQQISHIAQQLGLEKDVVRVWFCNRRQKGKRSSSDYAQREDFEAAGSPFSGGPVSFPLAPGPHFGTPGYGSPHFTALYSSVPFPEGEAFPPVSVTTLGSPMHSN

B1: 41B1细胞株所分泌的抗OCT3/4蛋白单克隆抗体 (antibody, mouse IgG2b, V domains shown)
VH: VKLQESGGGLVKPGGSLKLSCTASGFTFSTYAMSWVRQTPEKRLEWVAAINSNGGNTYYPDTVKDRFTISRDNAKNTLYLQMSSLRSDDTALYYCARDGYDYWGQGTTLTVSS
VL: DIVMTQDELSLPVSLGDQASISCRSSQSLVHSNGVTYLFWHLQRPGQSPKLLIYRVSNRFSGVPDRFSGSGSGTDFTLKISRVEAEDLGVYFCFQGTHVPFTFGTGTKLEIK
notes: also called OCT3/4(41B1); 41B1分泌的OCT3/4
As for B1, the binding result was “binds”.
